Source: the DeepSol protein solubility set

Assay: soluble on expression in E. coli; label from the status in PepcDB or PDB records

Sequence | soluble on expression in E. coli
MSSCVNTSQTGPKKKISFIIRDEHEYSNRSAVSALQYDAQNGRLFTGGSDTIIRTWSVPHHKDAFSARGGVRSPGKNSPVQYQGSLEQHTDWVNDMILCGHGKILISASNDTTVKVWNIERDNKHGFIDCIRTHKDYVSCLAYAPIVEKAVSASFDHNIFVYDINANFKTVNNLIGCKDSIYSLATTPNLSLVLGAGTEKCIRLFDPRTNEKIMKLRGHTDNVRALVVNDDGTRALSAGSDATIRLWDIGQQRCIATCIAHEEGVWTLQVDSSFTTVYSAGKDKMVVKTPLYDFTKSQLLFKEEAPVKKLLLSEKDNPVSLWVGTWKSDIKRWSIRPSAQLSIGGDEDGPSTSNANHSVSASSSPPVTFKYIRVKDQKGQQSTPELVIPGAPAIKKHAMLSDKRHVLTRDSDGNVALYDVLAARKIKDYGKRIFEEVVDENSRQVYIPSWFVVDSKSGMLQITLDELDALSSWLSSKDAGFDDNDRETKLNYGGMMLRSLFERWPPCKMTNVDAADADDVQKATLNFISLPEHTPLIICEGNGRPLYRLLVGDAGKEFEANELAQIAPMWVIDAIERNQLPKFNKMPFYLLPHPSTNPKQPKKDRLSATEMLQVKKVMEHVYEKILSTNDDITVGSIPLNQIHTKMEMYCNDQRLEPDMDLRTVKHLYWKQSGELLLHYKPVK | not soluble
MSLTTRRDFIKKTVAGTAALSLGSIIPGFGSNSYQEILGANEKIRIGVIGVNSRGNALAQGFAKMKGCEVTYLCDVDSRALERCQADIHKISGRTPKGEKDIRKMLESDDFEAVVIATPDHWHGKAAIMAMQAGKHVYLEKPTSHNPAENEMLVRATLKYNRIVQVGNQRRSWPNVIKAIEEIKSGAIGKVRYAKSWYVNNRPSIGTGKVVPVPDYLDWDLWQGPAPRVPNFKDNYIHYNWHWFWNWGTGEALNNGTHFVDILRWGLGVDYPTKVDSVGGRYRFQDDWQTPDTQLITFQFGDEASCSWEGRSCNSTPVDGYGVGTAFYGETGTLFISGGNEYKITDLQGKVIKDVKSNLKFETGNLLNPSEKLDAYHFENWFDAIRKGGKLNSGIVDACISTQLVQLGNIAQRVGHSLDIDPGSGRILNDLEANKLWGREYEKGWEIREGHHHHHH | soluble
GMSRTLVLFDIDGTLLKVESMNRRVLADALIEVYGTEGSTGSHDFSGKMDGAIIYEVLSNVGLERAEIADKFDKAKETYIALFRERARREDITLLEGVRELLDALSSRSDVLLGLLTGNFEASGRHKLKLPGIDHYFPFGAFADDALDRNELPHIALERARRMTGANYSPSQIVIIGDTEHDIRCARELDARSIAVATGNFTMEELARHKPGTLFKNFAETDEVLASILTPKHS | soluble
MVLRKLSTYRQKRDFEKTPEPSGEAAVASSKQRRFVIQKHDASRLHYDFRLEFDGVFKSWAVTKGPSLDPHDKRLAVEVEDHPLDYGDFEGTIPEGQYGGGTVMLWDRGTWEADDPERGFKKGDLKFTLHGEKLHGSWVLVRMRNDRDGGKRTNWLLIKHRDEYAREGEDILAEDKSVASGRAMAQIAEGKGLEHHHHHH | not soluble
GPGSMQEEAISSAATGVGHVMVTFFTDSYAKAMPEESYAVPLNVLPEGLNVLVQSVLSVNDQVFDFLYNGEYITTTLQKFLSRRGVSTEELVNVEYTPALQAKESSHLPHDDWVSSVRVPFVGHSELLLTGSYDRCIRLWDADDCVAIGAHHDECVKEVVVHPMKPRSTATNTTRDSVKKRARSSLLEDFYCVSCSKDGRAAAWVFNATASKFQLLSSVKAHTDAIESIDISPGAGKYVATASWDCTVKVFEWSQVVDGATEPSAKEPLVSFTDHTRPALSCRFSAAKGAALLYSSGLDGTLKCMDVETAVLQKQYIGDHPVQGLAVRTVGGGGGGDLIIAACTDNRARLYDTRVGESTGSVKVFSGHKQWLYAASWLWRPDEGEVNGGNFFATASEDSTVRLWDLRCGTNALLTLDTSHTDGVLDVTYSGNGEIVSCGKDNSTKSFQCFKGDSLLN | not soluble
MAWVVNKQSTQEELANRFRALVEANEILQIPGAHDAMAALVARNTGFLALYLSGAAYTASKGLPDLGIVTSTEVAERARDLVRATDLPVLVDIDTGFGGVLNVARTAVEMVEAKVAAVQIEDQQLPKKCGHLNGKKLVTTEELVQKIKAIKEVAPSLYIVARTDARGVEGLDEAIERANAYVKAGADAIFPEALQSEEEFRLFNSKVNAPLLANMTEFGKTPYYSAEEFANMGFQMVIYPVTSLRVAAKAYENVFTLIKETGSQKDALSNMQTRSELYETISYHDFEELDTGIAKTVLSEDQ | not soluble
MSRKNISLTESLEEYIFRNSVREPDSFLKLRKETGTLAQANMQISPEEGQFLNILTKISGAKRIIEIGTFTGYSSLCFASALPEDGKILCCDVSEEWTNVARKYWKENGLENKIFLKLGSALETLQVLIDSKSAPSWASDFAFGPSSIDLFFLDADKENYPNYYPLILKLLKPGGLLIADNVLWDGSVADLSHQEPSTVGIRKFNELVYNDSLVDVSLVPIADGVSLVRKRLEHHHHHH | soluble
MAHHHHHHMAEPNASGFRVIQILENYGVASSDIKKLMECGFYTVESAAYAPKKAILAVKGISENKAEKIMAECAKLVPMGFTSAVAYHEARKEIIMVTTGSREVDKLLGGGIETGSITELFGEFRTGKTQLCHTLCVTCQLPISQGGAEGMALYIDTEGTFRPERLVAVAERYKLDPEDVLANVACARAFNTDHQQQLLLQASAMMAENRFALIIVDSATALYRTDYSGRNELAARQMHLGKFLRSLHNLAEEYGVAVVVTNQVVANVDGSAQMFQADSKKPIGGHIMAHASTTRLSLRKGRGEQRIIKVYDSPCLAEAEAIFGIYDDGVGDARD | not soluble
ARLGNWEFDLETNVFTCSEESCRIFGIRDHRQGKSHRALMRRVHPEDRVTVKKAIFQAFRTGVGYCMDHRIVLDDGVERIVSQHAELLSADDGRTSRLVGTVHDIT | not soluble
MAHHHHHHMDTHALLALAQSAVDAGNVKAACEFYEVALAQSPNNDEVLEAYAEVMIHYAQDIPRAQQMLRHAIDINPNQGYVKYLNLAQLCEAEEALKCYEKAYEIASLMLHGCRKKKMKKTLQETMATMCCAVAELYLTDLCFAENAEQQCEQAVNRALELNSDLVEPHQLQASLRLSQCRPDEALQSLRRAVDATHRLGEEHQPTYESKIELGRLLMQVDPAEAFQFLLEVLQYGDNNPYVWFLLGESARMRRRYADAARLLRRARVMLVVSGGDATALSEVDAAINVLVQEMGGPEEAAQVKDLDHPYPLELLEAEDDEGAEEDGEDDLEEPEREPCDDEDDA | not soluble
MSLCRVLSVKPSSYYDWINRDISSQQIHRNQSELLIKAAHSETKERYGFERLHAHLNEQGYDISPYMVRNIKEEHGIKCRRHKRFKVTTDSNHNKLIYDNVLDQQFDVNRPNEAWVSDITYIWTTEGWLYLAGVKDLYTKELVGYAINKRMTADLVCKALNMAIKNKRPSKGLIVHSDRGGQYCSHAYHKIIKQHQFKGSMSGKGNCYDNAPIESFWGVLKNELVYHQDYKTRFAAITDIIRYIELYYNQTRIQKGLGYKSPRQVWFDYYRQAAEGHHHHHH | soluble
GPLGSMASKKVCIVGSGNWGSAIAKIVGGNAAQLAQFDPRVTMWVFEEDIGGKKLTEIINTQHENVKYLPGHKLPPNVVAVPDVVQAAEDADILIFVVPHQFIGKICDQLKGHLKANATGISLIKGVDEGPNGLKLISEVIGERLGIPMSVLMGANIASEVADEKFCETTIGCKDPAQGQLLKELMQTPNFRITVVQEVDTVEICGALKNVVAVGAGFCDGLGFGDNTKAAVIRLGLMEMIAFAKLFCSGPVSSATFLESCGVADLITTCYGGRNRKVAEAFARTGKSIEQLEKELLNGQKLQGPETARELYSILQHKGLVDKFPLFMAVYKVCYEGQPVGEFIHCLQNHPEHM | soluble
MERRLGVRAWVKENRGSFQPPVCNKLMHQEQLKVMFVGGPNTRKDYHIEEGEEVFYQLEGDMVLRVLEQGKHRDVVIRQGEIFLLPARVPHSPQRFANTVGLVVERRRLETELDGLRYYVGDTMDVLFEKWFYCKDLGTQLAPIIQEFFSSEQYRTGKPIPDQLLKEPPFPLSTRSIMEPMSLDAWLDSHHRELQAGTPLSLFGDTYETQVIAYGQGSSEGLRQNVDVWLWQLEGSSVVTMGGRRLSLAPDDSLLVLAGTSYAWERTQGSVALSVTQDPACKKPLGLEHHHHHH | not soluble
SVKVVIEADGGSRGNPGPAGYGAVVWTADHSTVLAESKQAIGRATNNVAEYRGLIAGLDDAVKLGATEAAVLMDSKLVVEQMSGRWKVKHPDLLKLYVQAQALASQFRRINYEWVPRARNTYADRLANDAMDAAAQSAAAD | soluble
MSLGINGFTAHAQKLSLIYNTLDSRDMPTRGLYAKAAIEGSAEFLGSDASYRHYEAELKGYFPLKEARYITVARVAYNQTLGSDVPFLERSILGGESTLRGYGRNRFIDSSYFLCNLEERIRLFRWSVFDVNTDWEVAPFIDLGAVMESLDKTRSKNFEFNPGIGFRAVVRPNIVGRVDIGVGNDGPAVFVGLGYPFEGHHHHHH | not soluble
DTETTGLPADETQFISGVDAPAPVSVGWQLLDFRFRCIEEVVCRLSTDEPVSPEAAALHGITDASLHGDDPHEVYARLLGAVSKAKVLSAHNLAFHRSVLVYDMRRRGFDPSPLFSLDDYCTMEAGVDFTHLYGSCGTWKLPRLTELFGVLYFGLPGVRTTYREKVRNDIRLVAACLHRMNPTTPSLE | not soluble
MAPAPAAEFWEARYRDTGRVWSGRPNELLVQEAGGLAPGTALDLGCGEGADAVWLASRGWRVTGVDISATALERAAGHADGAGVGDRVLWERHELGPSFPEGSFDLVSAHYLQSPVALDQQAVLRAAARAVAPGGTLLVVMHAGWPSWQTEPPFDAAFPTLDGVLAELALPEGEWSVETRRTARRPLEHHHHHH | not soluble
MSLLFSNTYRIESNAPLADKLRPKNLDDFFGQESILGHDSLLRNAILNDKVGNMIFSGPPGVGKTTLIEIISSNTRSSLIKLNAVLSSIKELRTEIANAKERLRSSNRKTILFIDEVHRFTSVQQDALLPSIENGTITFIGATTENPFFAVNKALISRARIFSLLPLNKNDLKKIIDKVIKYYSCLKDSKVVEIKEEAMNHLIKFSGGDARNLINALELGISITKENKENLVVIDLAIAEDSIQKKNIVYDKNGQNHFDVISAFIKSIRGSDPDATLYWLANMVEAGEDPNFIFRRLLISACEDIGLADPNAIVVVQSCCDAFDRVGFPEGLFFLSQASLYLAISPKSNSTKSIFKAMEAIKATNVSLVPNHLKNNASNYLNPHNYQGKWLQQEYLPTDLQGIKFWKPKDSGWEKNKYEDLPKKQKSEGHHHHHH | not soluble
GSEDTMDRINKDHDHTTSVASRFILADVITSTAFSNASGDINTYASSYIEYEVGVDNQLYYAEVRENEPSSSSTFNNSWNGIYSSLKNARIIIDQCGEGGRDHGNDVTRGMAEVMAAYNCALIADFFGDAPCSQAALVDEKGSPVYMTPKMDTQQEIYTQIISYLDDAIANLQKEDLADVTEQDFLYAGDADKWLKFAYGLKARYTMRLINRSSNKSADYEKVLDYVSKSFTSADDQAAFDIYDSNNINPFYGFYNSRAGFGASTSLGTKLLAYNDPRANRAFFTPIVDKKRSQVAANDPSLVPAPNGSPDQSTSKYGISAFVYAKTAPTLLMSYHELMFLKAEALCRLNRDAEDALKEAVVAGLLNAENSISIAIKELGSGLNTNSSEVITETSAGKYFDDVVKAKYAANPLQETMIQKYLAMWGASGEATETYNDFRRMKGLNENFITLTNPNNSSKFPLRYPYGNSDTAANPEVKAAYGNGDYVYSEPVWWAGGSR | soluble
